According to PMC2686699, “The interaction between the measles virus nucleoprotein and the Interferon Regulator Factor 3 relies on a specific cellular environment” (Virology Journal, 2009):

Target: the molecule itself
Test: SEC-MALS; data not shown; purified IRF-3 RD in various buffers, including 10 mM sodium phosphate pH 7 or buffer A (50 mM sodium phosphate pH 8, 300 mM NaCl, 10 mM imidazole); the method is told only in general (SEC-MALS in various buffers)

B1: IRF-3 RD (regulatory domain of IRF-3, residues 175-427, N-terminal hexahistidine tag; IRF-3 RDHN) (domain or fragment, human, UniProt Q14653 175-427, looked up)
chain: SLDNPTPFPNLGPSENPLKRLLVPGEEWEFEVTAFYRGRQVFQQTISCPEGLRLVGSEVGDRTLPGWPVTLPDPGMSLTDRGVMSYVRHVLSCLGGGLALWRAGQWLWAQRLGHCHTYWAVSEELLPNSGHGPDGEVPKDKEGGVFDLGPFIVDLITFTEGSGRSPRYALWFCVGESWPQDQPWTKRLVMVKVVPTCLRALVEMARVGGASSLENTVDLHISNSHPLSLTSDQYKAYLQDLVEGMDFQGPGES
notes: Human IRF-3, regulatory domain, residues 175-427; Dimer or monomer according to the buffer (monomer in buffers C and D); Also made uniformly 15N-labelled for NMR; source: E. coli Rosetta [DE3], purified (Talon IMAC, Hi-Trap Q, Superdex 200); not shown: His6, N-terminal, kept
stoichiometry N: 2
